Test results published in article PMC10764363.

Molecular target: EEEV virus-like particles (VLPs: C, E2, and E1) (Eastern equine encephalitis virus) (UniProt Q4QXJ7)
Experiment: ELISA

For “LA3-LA3-LA3-LA3-LA3-Fc [LA3(5)-Fc] (from UniProt P01130) (Fc fusion)”, the fold increase in binding avidity was 100 fold.
